The results in this text go back to publication PMC9614494, “Glutamate 1-semialdehyde aminotransferase is connected to GluTR by GluTR-binding protein and contributes to the rate-limiting step of 5-aminolevulinic acid synthesis” (The Plant Cell, 2022).

Usually Kd stands for the constant that tells how readily two partners part at equilibrium.

B1: recombinant 6xHis-GSAAT (enzyme)
chain: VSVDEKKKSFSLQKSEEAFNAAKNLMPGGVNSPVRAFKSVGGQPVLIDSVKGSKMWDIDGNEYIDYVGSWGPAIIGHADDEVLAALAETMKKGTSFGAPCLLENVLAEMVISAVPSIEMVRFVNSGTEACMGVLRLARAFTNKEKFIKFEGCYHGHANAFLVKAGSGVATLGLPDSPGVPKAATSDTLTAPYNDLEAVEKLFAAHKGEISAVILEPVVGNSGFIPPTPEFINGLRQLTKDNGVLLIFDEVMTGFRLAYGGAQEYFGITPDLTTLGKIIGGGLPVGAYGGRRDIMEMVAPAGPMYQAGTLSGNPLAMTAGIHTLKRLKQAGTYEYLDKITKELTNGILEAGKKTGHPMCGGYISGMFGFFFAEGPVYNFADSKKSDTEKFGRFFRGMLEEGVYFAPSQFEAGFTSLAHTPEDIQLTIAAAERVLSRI
B2: recombinant 6xHis-GBP (natural protein, Arabidopsis thaliana, UniProt Q9LU39 43-317, looked up)
chain: SVSTTLDTPATASTHKPFPAEVSRSIMELSSVGTLSTLTHDGWPLGVGVRFAVDKDGTPVLCLNRSVSPDKRSALHVQLEQCGLRTPQCTIQGSIGRPGDDTVLKRLSATWREKFGEEVKEDSLYVVAVDRVLQMEDFMEDGIWVASSDYKNASPDPLRDIAEDIVNQINANNMEDIFRFCNVYVDLDFVVSETKMIWMDRLGFDLRVWSPRGVYDVRIPFPMEVTDEKGAKSSFNGMSQLAWEVEKSYCPADFNKVKLLKQVVGSSHSHKGGGQ
notes: Labelled with the dye RED-NHS 2nd generation where it was the MST target; unlabelled in the in vitro pull-down; also called 6× His-GBP; source: E. coli Rosetta 2, purified (Ni-NTA)

What all share (conditions): both partners purified
One experiment deals with T1, recombinant 6xHis-GluTR (Arabidopsis thaliana, UniProt P42804 62-543).
T1 construct: Glutamyl-tRNA reductase (GluTR), Arabidopsis thaliana; Named only in the results on MST; the methods on purification list only GST-GluTR
Put plainly: MST; 6xHis-GSAAT labelled with RED-NHS 2nd generation as target, 6xHis-GluTR titrated; Monolith NT.115, 30°C, PBS.

Experiment [1] addresses T2, labelled 6xHis-GBP incubated with GluTR (GBP/GluTR) (Arabidopsis thaliana, UniProt Q9LU39 43-317; P42804 62-543, RED-NHS 2nd generation dye).
T2 construct: as m7; Glutamyl-tRNA reductase (GluTR), Arabidopsis thaliana; The sentence on this titration says only GluTR; 6xHis-GluTR is named for the titration before it; source: recombinant proteins mixed before the titration (6xHis-GBP: E. coli Rosetta 2, purified)
Put plainly: MST; 6xHis-GBP labelled with RED-NHS 2nd generation as target, with or without GluTR, ligand in 1:1 dilutions from 5 nM to 110 µM; Monolith NT.115, 30°C, 40% LED power, PBS.

The experiment “recombinant 6xHis-GSAAT” deals with B1. The description is as above.

As for B1, the results for the Kd (in the experiment with recombinant 6xHis-GluTR; in experiment [1]) were 3000 nM and 940 nM, respectively.

As for B2, the dissociation constant (Kd) with recombinant 6xHis-GSAAT came to 178 nM.
